Source: patent US20120058906A1
One block for each substance: values may come before it.

Columns and labels:
[1] = biological target: rHuman EGF R/Fc Chimera, CF (R&D Systems Cat#344-ER) (human) (UniProt P00533); assay: ECL (MSD multi-spot), Fab […]; blank 376
[2] = biological target: rHuman ErbB2/Fc Chimera, CF (R&D Systems Cat#1129-ER) (human) (UniProt P04626); assay: ECL (MSD multi-spot), Fab […]; blank 376
[3] = biological target: rHuman Erythropoietin R/Fc Chimera, CF (R&D Systems Cat#963-ER) (human) (UniProt P19235); assay: ECL (MSD multi-spot), Fab […]; blank 376
rHuman Erythropoietin R/Fc Chimera, CF (R&D Systems Cat#963-ER) (human), sequence (P19235 25-250, change not shown): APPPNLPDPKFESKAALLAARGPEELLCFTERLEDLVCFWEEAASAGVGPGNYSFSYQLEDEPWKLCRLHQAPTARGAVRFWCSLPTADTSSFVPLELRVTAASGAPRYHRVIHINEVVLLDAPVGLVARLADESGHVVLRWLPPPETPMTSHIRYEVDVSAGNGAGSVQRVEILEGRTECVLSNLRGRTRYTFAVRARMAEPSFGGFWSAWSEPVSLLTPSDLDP

[4] = biological target: rHuman HGF R/c-MET/Fc Chimera, CF (R&D Systems Cat#358-MT/CF) (human) (UniProt P08581); assay: ECL (MSD multi-spot), Fab […]; blank 376
[5] = biological target: rHuman IGF-1 sR (IGF-1 sR), CF (R&D Systems Cat#391-GR) (human) (UniProt P08069); assay: ECL (MSD multi-spot), Fab […]; blank 376
[6] = biological target: rHuman Notch-1/Fc Chimera, CF (R&D Systems Cat#3647-TK) (human) (UniProt P46531); assay: ECL (MSD multi-spot), Fab […]; blank 376
[7] = biological target: rHuman EGF R/Fc Chimera, CF (R&D Systems Cat#344-ER) (human) (UniProt P00533); assay: ECL (MSD multi-spot), Fab 210 nM; blank 833
[8] = biological target: rHuman ErbB2/Fc Chimera, CF (R&D Systems Cat#1129-ER) (human) (UniProt P04626); assay: ECL (MSD multi-spot), Fab 210 nM; blank 833
[9] = biological target: rHuman Erythropoietin R/Fc Chimera, CF (R&D Systems Cat#963-ER) (human) (UniProt P19235); assay: ECL (MSD multi-spot), Fab 210 nM; blank 833
[10] = biological target: rHuman HGF R/c-MET/Fc Chimera, CF (R&D Systems Cat#358-MT/CF) (human) (UniProt P08581); assay: ECL (MSD multi-spot), Fab 210 nM; blank 833
[11] = biological target: rHuman IGF-1 sR (IGF-1 sR), CF (R&D Systems Cat#391-GR) (human) (UniProt P08069); assay: ECL (MSD multi-spot), Fab 210 nM; blank 833
[12] = biological target: rHuman Notch-1/Fc Chimera, CF (R&D Systems Cat#3647-TK) (human) (UniProt P46531); assay: ECL (MSD multi-spot), Fab 210 nM; blank 833
[13] = biological target: rHuman EGF R/Fc Chimera, CF (R&D Systems Cat#344-ER) (human) (UniProt P00533); assay: ECL (MSD multi-spot), Fab 3.3 nM; blank 359
[14] = biological target: rHuman ErbB2/Fc Chimera, CF (R&D Systems Cat#1129-ER) (human) (UniProt P04626); assay: ECL (MSD multi-spot), Fab 3.3 nM; blank 359
[15] = biological target: rHuman Erythropoietin R/Fc Chimera, CF (R&D Systems Cat#963-ER) (human) (UniProt P19235); assay: ECL (MSD multi-spot), Fab 3.3 nM; blank 359
[16] = biological target: rHuman HGF R/c-MET/Fc Chimera, CF (R&D Systems Cat#358-MT/CF) (human) (UniProt P08581); assay: ECL (MSD multi-spot), Fab 3.3 nM; blank 359
[17] = biological target: rHuman IGF-1 sR (IGF-1 sR), CF (R&D Systems Cat#391-GR) (human) (UniProt P08069); assay: ECL (MSD multi-spot), Fab 3.3 nM; blank 359
[18] = biological target: rHuman Notch-1/Fc Chimera, CF (R&D Systems Cat#3647-TK) (human) (UniProt P46531); assay: ECL (MSD multi-spot), Fab 3.3 nM; blank 359
[19] = biological target: rHuman EGF R/Fc Chimera, CF (R&D Systems Cat#344-ER) (human) (UniProt P00533); assay: ECL (MSD multi-spot), Fab 52.5 nM; blank 467
[20] = biological target: rHuman ErbB2/Fc Chimera, CF (R&D Systems Cat#1129-ER) (human) (UniProt P04626); assay: ECL (MSD multi-spot), Fab 52.5 nM; blank 467
[21] = biological target: rHuman Erythropoietin R/Fc Chimera, CF (R&D Systems Cat#963-ER) (human) (UniProt P19235); assay: ECL (MSD multi-spot), Fab 52.5 nM; blank 467
[22] = biological target: rHuman HGF R/c-MET/Fc Chimera, CF (R&D Systems Cat#358-MT/CF) (human) (UniProt P08581); assay: ECL (MSD multi-spot), Fab 52.5 nM; blank 467
[23] = biological target: rHuman IGF-1 sR (IGF-1 sR), CF (R&D Systems Cat#391-GR) (human) (UniProt P08069); assay: ECL (MSD multi-spot), Fab 52.5 nM; blank 467
[24] = biological target: rHuman Notch-1/Fc Chimera, CF (R&D Systems Cat#3647-TK) (human) (UniProt P46531); assay: ECL (MSD multi-spot), Fab 52.5 nM; blank 467
[25] = biological target: rHuman EGF R/Fc Chimera, CF (R&D Systems Cat#344-ER) (human) (UniProt P00533); assay: ECL (MSD multi-spot) screen, antigen spotted on plate, Fab at 0.21 uM; blank spot 489
[26] = biological target: rHuman ErbB2/Fc Chimera, CF (R&D Systems Cat#1129-ER) (human) (UniProt P04626); assay: as above
[27] = biological target: rHuman HGF R/c-MET/Fc Chimera, CF (R&D Systems Cat#358-MT/CF) (human) (UniProt P08581); assay: as above
[28] = biological target: rHuman IGF-1 sR, CF (R&D Systems Cat#391-GR) (human) (UniProt P08069); assay: as above
[29] = biological target: Recombinant Human DLL4 (R&D Systems Cat#1506-D4/CF) (human) (UniProt Q9NR61); assay: MSD ECL multi-spot plate, antigen immobilized; Fab 12 nM; blank spot 573
[30] = biological target: rHuman HGF R/c-MET/Fc Chimera, CF (R&D Systems Cat#358-MT/CF) (human) (UniProt P08581); assay: as above
[31] = biological target: rHuman Notch-1/Fc Chimera, CF (R&D Systems Cat#3647-TK) (human) (UniProt P46531); assay: as above
[32] = biological target: Recombinant Human DLL4 (R&D Systems Cat#1506-D4/CF) (human) (UniProt Q9NR61); assay: MSD ECL multi-spot plate, antigen immobilized; Fab 1.2 nM; blank spot 227
[33] = biological target: rHuman HGF R/c-MET/Fc Chimera, CF (R&D Systems Cat#358-MT/CF) (human) (UniProt P08581); assay: as above
[34] = biological target: rHuman Notch-1/Fc Chimera, CF (R&D Systems Cat#3647-TK) (human) (UniProt P46531); assay: as above
[35] = biological target: Recombinant Human DLL4 (R&D Systems Cat#1506-D4/CF) (human) (UniProt Q9NR61); assay: MSD ECL multi-spot plate, antigen immobilized; Fab 0.12 nM; blank spot 264
[36] = biological target: rHuman HGF R/c-MET/Fc Chimera, CF (R&D Systems Cat#358-MT/CF) (human) (UniProt P08581); assay: as above
[37] = biological target: rHuman Notch-1/Fc Chimera, CF (R&D Systems Cat#3647-TK) (human) (UniProt P46531); assay: as above
[38] = biological target: Recombinant Human DLL4 (R&D Systems Cat#1506-D4/CF) (human) (UniProt Q9NR61); assay: MSD ECL multi-spot plate, antigen immobilized; Fab 120 nM; blank spot 6749
[39] = biological target: rHuman HGF R/c-MET/Fc Chimera, CF (R&D Systems Cat#358-MT/CF) (human) (UniProt P08581); assay: as above
[40] = biological target: rHuman Notch-1/Fc Chimera, CF (R&D Systems Cat#3647-TK) (human) (UniProt P46531); assay: as above
[41] = biological target: Recombinant Human DLL4 (R&D Systems Cat#1506-D4/CF) (human) (UniProt Q9NR61); assay: ECL (MSD multi-spot) screen, antigen spotted on plate, Fab at 0.12 uM; blank spot 2225
[42] = biological target: rHuman ErbB2/Fc Chimera, CF (R&D Systems Cat#1129-ER) (human) (UniProt P04626); assay: as above
[43] = biological target: rHuman HGF R/c-MET/Fc Chimera, CF (R&D Systems Cat#358-MT/CF) (human) (UniProt P08581); assay: as above
[44] = biological target: rHuman Notch-1/Fc Chimera, CF (R&D Systems Cat#3647-TK) (human) (UniProt P46531); assay: as above
[45] = biological target: Recombinant Human DLL4 (R&D Systems Cat#1506-D4/CF) (human) (UniProt Q9NR61); assay: MSD ECL multi-spot plate, antigen immobilized; Fab 42.112 nM; blank spot 323
[46] = biological target: rHuman Erythropoietin R/Fc Chimera, CF (R&D Systems Cat#963-ER) (human) (UniProt P19235); assay: as above
[47] = biological target: rHuman HGF R/c-MET/Fc Chimera, CF (R&D Systems Cat#358-MT/CF) (human) (UniProt P08581); assay: as above
[48] = biological target: rHuman Notch-1/Fc Chimera, CF (R&D Systems Cat#3647-TK) (human) (UniProt P46531); assay: as above
[49] = biological target: Recombinant Human DLL4 (R&D Systems Cat#1506-D4/CF) (human) (UniProt Q9NR61); assay: MSD ECL multi-spot plate, antigen immobilized; Fab 421.12 nM; blank spot 639
[50] = biological target: rHuman Erythropoietin R/Fc Chimera, CF (R&D Systems Cat#963-ER) (human) (UniProt P19235); assay: as above
[51] = biological target: rHuman HGF R/c-MET/Fc Chimera, CF (R&D Systems Cat#358-MT/CF) (human) (UniProt P08581); assay: as above
[52] = biological target: rHuman Notch-1/Fc Chimera, CF (R&D Systems Cat#3647-TK) (human) (UniProt P46531); assay: as above
[53] = biological target: rHuman Erythropoietin R/Fc Chimera, CF (R&D Systems Cat#963-ER) (human) (UniProt P19235); assay: ECL (MSD multi-spot) screen, antigen spotted on plate, Fab at 0.42 uM; blank spot 450

ECL signal [1]: 824 ECL signal | ECL signal [2]: 930 ECL signal | ECL signal [3]: 776 ECL signal | ECL signal [4]: 981 ECL signal | ECL signal [5]: 814 ECL signal | ECL signal [6]: 669 ECL signal | ECL signal [7]: 1620 ECL signal | ECL signal [8]: 1980 ECL signal | ECL signal [9]: 2120 ECL signal | ECL signal [10]: 2060 ECL signal | ECL signal [11]: 1430 ECL signal | ECL signal [12]: 1970 ECL signal | ECL signal [13]: 847 ECL signal | ECL signal [14]: 1030 ECL signal | ECL signal [15]: 695 ECL signal | ECL signal [16]: 849 ECL signal | ECL signal [17]: 743 ECL signal | ECL signal [18]: 726 ECL signal | ECL signal [19]: 1110 ECL signal | ECL signal [20]: 1510 ECL signal | ECL signal [21]: 1320 ECL signal | ECL signal [22]: 1290 ECL signal | ECL signal [23]: 911 ECL signal | ECL signal [24]: 1320 ECL signal | ECL signal [25]: 1300 | ECL signal [26]: 1310 | ECL signal [27]: 1530 | ECL signal [28]: 1560
Substance: Fab VH4-31_IGHD2-15*01_IGHJ2*01 & V1-4_IGLJ4*01

ECL signal [29]: 2510 ECL signal | ECL signal [30]: 2700 ECL signal | ECL signal [31]: 2580 ECL signal | ECL signal [32]: 319 ECL signal | ECL signal [33]: 412 ECL signal | ECL signal [34]: 660 ECL signal | ECL signal [35]: 210 ECL signal | ECL signal [36]: 287 ECL signal | ECL signal [37]: 218 ECL signal | ECL signal [38]: 20600 ECL signal | ECL signal [39]: 15900 ECL signal | ECL signal [40]: 14400 ECL signal | ECL signal [41]: 6650 | ECL signal [42]: 4580 | ECL signal [43]: 5470 | ECL signal [44]: 5500
Substance: Fab VH3-23_IGHD3-10*01>3_IGHJ6*01 & O12_IGKJ1*01

ECL signal [45]: 404 ECL signal | ECL signal [46]: 759 ECL signal | ECL signal [47]: 565 ECL signal | ECL signal [48]: 437 ECL signal | ECL signal [49]: 1090 ECL signal | ECL signal [50]: 1300 ECL signal | ECL signal [51]: 1200 ECL signal | ECL signal [52]: 1060 ECL signal | ECL signal [53]: 1500
Substance: Fab VH3-23_IGHD3-10*01>1′_IGHJ3*01 & O12_IGKJ1*01
